Assay results as given in publication PMC2110890, “Glutathione mediated regulation of oligomeric structure and functional activity of Plasmodium falciparum glutathione S-transferase” (BMC Structural Biology, 2007).

B1: Plasmodium falciparum glutathione S-transferase (enzyme, UniProt Q8ILQ7 1-211, looked up)
chain: MGDNIVLYYFDARGKAELIRLIFAYLGIEYTDKRFGVNGDAFVEFKNFKKEKDTPFEQVPILQIGDLILAQSQAIVRYLSKKYNICGESELNEFYADMIFCGVQDIHYKFNNTNLFKQNETTFLNEDLPKWSGYFEKLLKKNHTNNNNDKYYFVGNNLTYADLAVFNLYDDIETKYPSSLKNFPLLKAHNEFISNLPNIKNYITNRKESVY
notes: Glutathione S-transferase of Plasmodium falciparum (PfGST), recombinant, about 26 kDa on SDS-PAGE; The chain is a homotetramer without GSH and a homodimer at GSH of 0.7 mM or more, so copies is left empty; also called PfGST; recombinant PfGST; source: E. coli M15, purified (Ni-NTA agarose)

What was measured:
[1] = target: human GST (human) (UniProt P09211); experiment: cross-linking; 1% glutaraldehyde, 30 min, room temperature, protein 50 μg/mL, 10% SDS-PAGE; sample without GSH
[2] = target: human GST (human) (UniProt P09211); experiment: cross-linking; 1% glutaraldehyde, 30 min, room temperature, protein 50 μg/mL, 10% SDS-PAGE; sample incubated with GSH
[3] = target: human GST (human) (UniProt P09211); experiment: SEC; Superdex 200 10/300 GL, 100 mM potassium phosphate pH 8.0, 1 mM EDTA, 25°C; incubated and run with GSH at 0.7 mM or more (2 mM GSH in Figures 1B and 3)
[4] = target: human GST (human) (UniProt P09211); experiment: SEC; Superdex 200 10/300 GL, 100 mM potassium phosphate pH 8.0, 1 mM EDTA, 0.3 mL/min, 25°C; incubated and run without GSH
[5] = target: the molecule itself; experiment: SEC; Superdex 200 10/300 GL, 100 mM potassium phosphate pH 8.0, 1 mM EDTA, 25°C; incubated and run with GSH at 0.7 mM or more (2 mM GSH in Figures 1B and 3)
[6] = target: the molecule itself; experiment: SEC; Superdex 200 10/300 GL, 100 mM potassium phosphate pH 8.0, 1 mM EDTA, 0.3 mL/min, 25°C; incubated and run without GSH
[7] = target: the molecule itself; experiment: SEC; GSH-stabilized dimer dialysed for 4 h against buffer without GSH, then loaded on the column

Row | Molecule | stoichiometry N [1] | stoichiometry N [2] | stoichiometry N [3] | stoichiometry N [4] | stoichiometry N [5] | stoichiometry N [6] | ratio of dimer to tetramer [7]
1 | human GST (from UniProt P09211 1-210) (enzyme) | 2 | 2 | 2 | 2 | – | – | –
2 | B1 | – | – | – | – | 2 | 4 | ~0.33 dimer:tetramer
